Measured values: publication doi:10.1101/733147 (bioRxiv, 2020)

T1: human ACVR2B.Fc fusion protein (human, UniProt Q13705)
T1 sequence: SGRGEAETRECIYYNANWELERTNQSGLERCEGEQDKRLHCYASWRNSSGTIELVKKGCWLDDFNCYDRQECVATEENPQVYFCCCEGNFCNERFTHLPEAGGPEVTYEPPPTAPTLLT


Target: T1, human ACVR2B.Fc fusion protein
Experiment: SPR

Row | binding result | Binder
1 | binds | Activin A (wild type, mature dimer) (ligand) GLECDGKVNICCKKQFFVSFKDIGWNDWIIAPSGYHANYCEGECPSHIAGTSGSSLSFHSTVINHYRMRGHSPFANLKSCCVPTKLRPMSMLYYDDGQNIIKKDIQNMIVEECGCS
2 | binds | Activin A.ΔD406 (ligand) GLECDGKVNICCKKQFFVSFKDIGWNDWIIAPSGYHANYCEGECPSHIAGTSGSSLSFHSTVINHYRMRGHSPFANLKSCCVPTKLRPMSMLYYDGQNIIKKDIQNMIVEECGCS
